According to the supplement of paper PMC10065799, “High-throughput profiling of sequence recognition by tyrosine kinases and SH2 domains using bacterial peptide display” (eLife, 2023):

Assays:
AncSZ = assay: phosphorylation enrichment, bacterial display (enrichment ratio); higher = better substrate or ligand; peptides without Tyr show the background
EPHB1 = EPHB1 (UniProt P54762); assay: as above
EPHB2 = EPHB2 (UniProt P29323); assay: as above
FGFR1 = FGFR1 (UniProt P11362); assay: as above
FGFR3 = FGFR3 (UniProt P22607); assay: as above
Fer (mouse) = assay: as above
Fes = Fes (UniProt P07332); assay: as above
Fyn = Fyn (UniProt P06241); assay: as above
Hck = Hck (UniProt P08631); assay: as above
Jak2 = Jak2 (UniProt O60674); assay: as above
MERTK = MERTK (UniProt Q12866); assay: as above
c-Abl (mouse) = assay: as above
c-Src = assay: as above
Grb2 SH2 = Grb2 SH2 (UniProt P62993); assay: SH2 binding enrichment of the phosphorylated peptide, bacterial display (enrichment ratio); higher = better substrate or ligand; peptides without Tyr show the background
SHP2-C SH2 = assay: as above
c-Src SH2 = assay: as above
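Wherever SH2 binding enrichment of the phosphorylated peptide, bacterial display is given: peptide library displayed on the E. coli surface as eCPX fusions, selected cells deep-sequenced, score is each peptide's frequency after selection divided by its frequency in the input.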
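Wherever phosphorylation enrichment, bacterial display is given: 11-residue human phosphosite peptides and single-mutation variants displayed on the E. coli surface, counted by deep sequencing, each peptide's frequency after selection divided by its frequency in the unselected input library; frequency after pTyr selection over input frequency; kinase dosed for 20-30% of maximal phosphorylation in three min.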

Hck, sequence (P08631 whole entry, looked up): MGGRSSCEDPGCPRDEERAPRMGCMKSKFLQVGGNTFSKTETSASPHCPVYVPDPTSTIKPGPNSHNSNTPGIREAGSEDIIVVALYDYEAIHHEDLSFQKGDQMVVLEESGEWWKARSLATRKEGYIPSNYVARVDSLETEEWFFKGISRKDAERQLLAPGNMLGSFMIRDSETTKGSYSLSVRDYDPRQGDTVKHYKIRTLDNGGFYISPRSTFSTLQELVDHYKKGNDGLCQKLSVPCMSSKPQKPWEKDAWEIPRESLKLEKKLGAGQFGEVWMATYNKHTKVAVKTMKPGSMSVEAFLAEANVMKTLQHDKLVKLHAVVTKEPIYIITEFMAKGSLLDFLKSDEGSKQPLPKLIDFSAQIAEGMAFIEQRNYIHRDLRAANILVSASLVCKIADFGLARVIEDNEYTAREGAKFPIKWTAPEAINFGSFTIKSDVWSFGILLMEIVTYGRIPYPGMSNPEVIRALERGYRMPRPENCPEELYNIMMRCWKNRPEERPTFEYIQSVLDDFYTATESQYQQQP
Fes, sequence (P07332 whole entry, looked up): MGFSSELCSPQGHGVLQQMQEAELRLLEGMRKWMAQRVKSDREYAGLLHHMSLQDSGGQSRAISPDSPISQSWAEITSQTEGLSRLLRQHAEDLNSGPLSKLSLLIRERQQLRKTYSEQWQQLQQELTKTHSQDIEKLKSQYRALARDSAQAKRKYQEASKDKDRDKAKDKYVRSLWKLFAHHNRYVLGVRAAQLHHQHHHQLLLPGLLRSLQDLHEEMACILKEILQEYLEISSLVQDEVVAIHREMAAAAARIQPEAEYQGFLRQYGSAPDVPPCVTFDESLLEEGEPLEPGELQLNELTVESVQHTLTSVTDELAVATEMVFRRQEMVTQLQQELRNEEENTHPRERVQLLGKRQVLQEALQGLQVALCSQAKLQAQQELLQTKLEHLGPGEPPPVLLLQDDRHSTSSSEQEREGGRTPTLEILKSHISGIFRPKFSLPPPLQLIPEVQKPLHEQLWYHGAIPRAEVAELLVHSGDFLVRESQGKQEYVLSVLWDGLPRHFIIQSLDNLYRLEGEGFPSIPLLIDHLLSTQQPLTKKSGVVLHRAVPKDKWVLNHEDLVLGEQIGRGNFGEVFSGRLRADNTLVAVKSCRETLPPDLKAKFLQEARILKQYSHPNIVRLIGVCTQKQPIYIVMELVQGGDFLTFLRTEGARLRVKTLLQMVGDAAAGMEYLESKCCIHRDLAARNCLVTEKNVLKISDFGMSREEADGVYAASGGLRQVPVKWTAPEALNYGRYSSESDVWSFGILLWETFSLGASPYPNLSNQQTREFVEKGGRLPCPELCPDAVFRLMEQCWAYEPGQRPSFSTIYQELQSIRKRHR
FGFR1, sequence (P11362 whole entry, looked up): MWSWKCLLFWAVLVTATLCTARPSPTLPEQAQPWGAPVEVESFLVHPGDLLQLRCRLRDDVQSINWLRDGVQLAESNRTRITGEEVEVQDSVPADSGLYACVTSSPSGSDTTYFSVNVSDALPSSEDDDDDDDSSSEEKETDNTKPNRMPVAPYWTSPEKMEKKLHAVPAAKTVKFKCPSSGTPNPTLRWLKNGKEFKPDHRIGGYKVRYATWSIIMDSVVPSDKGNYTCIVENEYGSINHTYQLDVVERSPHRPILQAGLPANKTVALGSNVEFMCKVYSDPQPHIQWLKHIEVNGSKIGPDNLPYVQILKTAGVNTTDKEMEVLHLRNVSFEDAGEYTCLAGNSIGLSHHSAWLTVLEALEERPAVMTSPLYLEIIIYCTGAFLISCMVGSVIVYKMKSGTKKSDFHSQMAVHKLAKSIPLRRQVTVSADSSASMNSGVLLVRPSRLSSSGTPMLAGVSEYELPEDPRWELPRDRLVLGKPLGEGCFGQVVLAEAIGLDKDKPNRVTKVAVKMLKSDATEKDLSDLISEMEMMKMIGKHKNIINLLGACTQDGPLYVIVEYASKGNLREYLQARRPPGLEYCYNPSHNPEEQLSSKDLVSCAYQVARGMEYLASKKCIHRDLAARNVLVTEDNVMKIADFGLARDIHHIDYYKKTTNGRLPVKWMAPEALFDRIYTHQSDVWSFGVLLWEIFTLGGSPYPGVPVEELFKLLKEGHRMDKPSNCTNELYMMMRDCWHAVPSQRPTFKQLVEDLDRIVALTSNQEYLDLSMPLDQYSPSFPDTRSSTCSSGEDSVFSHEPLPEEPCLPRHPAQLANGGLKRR
FGFR3, sequence (P22607 whole entry, looked up): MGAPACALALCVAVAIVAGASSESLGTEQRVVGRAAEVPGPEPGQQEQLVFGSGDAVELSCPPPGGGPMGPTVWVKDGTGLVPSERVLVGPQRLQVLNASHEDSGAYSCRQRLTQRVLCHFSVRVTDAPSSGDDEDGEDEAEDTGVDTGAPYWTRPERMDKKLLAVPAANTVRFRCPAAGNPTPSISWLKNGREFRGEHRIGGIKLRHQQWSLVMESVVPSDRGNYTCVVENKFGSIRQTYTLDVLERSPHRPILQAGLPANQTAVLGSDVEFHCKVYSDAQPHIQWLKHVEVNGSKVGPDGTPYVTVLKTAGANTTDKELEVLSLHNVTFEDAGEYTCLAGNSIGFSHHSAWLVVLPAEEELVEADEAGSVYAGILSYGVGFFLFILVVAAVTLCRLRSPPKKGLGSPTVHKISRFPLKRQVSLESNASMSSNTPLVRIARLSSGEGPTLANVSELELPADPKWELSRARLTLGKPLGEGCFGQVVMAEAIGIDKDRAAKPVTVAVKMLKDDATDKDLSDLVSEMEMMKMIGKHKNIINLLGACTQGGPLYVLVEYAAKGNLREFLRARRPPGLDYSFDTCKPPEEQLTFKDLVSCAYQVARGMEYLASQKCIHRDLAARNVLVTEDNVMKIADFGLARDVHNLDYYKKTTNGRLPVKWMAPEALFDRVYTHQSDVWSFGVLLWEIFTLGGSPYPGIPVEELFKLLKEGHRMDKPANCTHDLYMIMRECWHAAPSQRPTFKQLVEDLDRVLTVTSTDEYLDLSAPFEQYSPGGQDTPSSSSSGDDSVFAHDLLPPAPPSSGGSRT
EPHB2, sequence (P29323 whole entry, looked up): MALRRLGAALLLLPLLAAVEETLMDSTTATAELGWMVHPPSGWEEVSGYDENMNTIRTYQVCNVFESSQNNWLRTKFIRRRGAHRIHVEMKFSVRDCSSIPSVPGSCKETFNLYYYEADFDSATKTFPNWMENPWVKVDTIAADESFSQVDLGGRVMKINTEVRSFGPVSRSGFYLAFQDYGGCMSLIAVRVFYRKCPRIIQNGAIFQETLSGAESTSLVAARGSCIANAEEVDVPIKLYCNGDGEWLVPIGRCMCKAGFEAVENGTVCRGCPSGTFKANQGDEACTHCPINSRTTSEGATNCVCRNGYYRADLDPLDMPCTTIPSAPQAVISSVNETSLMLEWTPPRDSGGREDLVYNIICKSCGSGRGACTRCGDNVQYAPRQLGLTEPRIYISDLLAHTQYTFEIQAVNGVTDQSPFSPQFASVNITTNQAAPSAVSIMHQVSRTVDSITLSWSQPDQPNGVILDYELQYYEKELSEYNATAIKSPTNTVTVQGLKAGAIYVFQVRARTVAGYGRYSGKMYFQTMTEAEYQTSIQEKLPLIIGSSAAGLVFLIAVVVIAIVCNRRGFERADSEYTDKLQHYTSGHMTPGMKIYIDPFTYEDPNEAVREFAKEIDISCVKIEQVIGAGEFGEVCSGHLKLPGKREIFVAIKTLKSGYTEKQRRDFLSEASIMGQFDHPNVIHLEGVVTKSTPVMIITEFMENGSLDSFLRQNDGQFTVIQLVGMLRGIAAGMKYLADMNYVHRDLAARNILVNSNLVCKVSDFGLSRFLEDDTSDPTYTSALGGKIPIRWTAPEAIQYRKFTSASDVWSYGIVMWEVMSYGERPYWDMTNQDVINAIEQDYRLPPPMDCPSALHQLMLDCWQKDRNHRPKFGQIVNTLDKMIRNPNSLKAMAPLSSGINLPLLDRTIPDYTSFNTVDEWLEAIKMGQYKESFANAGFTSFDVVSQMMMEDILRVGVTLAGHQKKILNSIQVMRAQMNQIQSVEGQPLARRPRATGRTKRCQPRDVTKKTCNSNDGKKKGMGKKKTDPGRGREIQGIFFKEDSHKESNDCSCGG
MERTK, sequence (Q12866 whole entry, looked up): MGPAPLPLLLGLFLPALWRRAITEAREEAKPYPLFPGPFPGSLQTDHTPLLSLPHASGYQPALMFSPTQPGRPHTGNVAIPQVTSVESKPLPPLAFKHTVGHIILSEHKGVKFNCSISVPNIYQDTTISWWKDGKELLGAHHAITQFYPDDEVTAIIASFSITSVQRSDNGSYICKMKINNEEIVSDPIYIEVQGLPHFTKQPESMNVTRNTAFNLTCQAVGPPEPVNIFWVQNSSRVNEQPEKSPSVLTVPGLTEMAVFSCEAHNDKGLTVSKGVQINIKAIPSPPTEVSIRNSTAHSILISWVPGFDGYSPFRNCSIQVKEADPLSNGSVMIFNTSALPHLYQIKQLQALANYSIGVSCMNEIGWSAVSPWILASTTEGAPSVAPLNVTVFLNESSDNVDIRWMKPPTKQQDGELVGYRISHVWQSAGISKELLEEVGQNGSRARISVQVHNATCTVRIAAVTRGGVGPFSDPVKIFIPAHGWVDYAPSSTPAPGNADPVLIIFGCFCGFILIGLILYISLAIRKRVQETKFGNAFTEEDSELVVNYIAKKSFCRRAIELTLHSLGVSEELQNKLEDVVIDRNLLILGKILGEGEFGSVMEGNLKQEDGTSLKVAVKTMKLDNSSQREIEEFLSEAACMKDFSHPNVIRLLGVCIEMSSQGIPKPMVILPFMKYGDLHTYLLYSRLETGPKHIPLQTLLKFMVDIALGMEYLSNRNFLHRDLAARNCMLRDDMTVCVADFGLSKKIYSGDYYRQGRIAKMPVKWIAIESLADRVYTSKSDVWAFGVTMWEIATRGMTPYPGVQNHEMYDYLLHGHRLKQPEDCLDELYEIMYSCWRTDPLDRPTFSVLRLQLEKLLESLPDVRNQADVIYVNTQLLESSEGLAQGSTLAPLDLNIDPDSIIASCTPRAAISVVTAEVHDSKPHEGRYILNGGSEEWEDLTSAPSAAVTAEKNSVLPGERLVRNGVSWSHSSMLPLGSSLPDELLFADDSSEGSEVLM

Row | SH2 binding enrichment (Grb2 SH2) | SH2 binding enrichment (SHP2-C SH2) | SH2 binding enrichment (c-Src SH2) | Sequence | phosphorylation enrichment (AncSZ) | phosphorylation enrichment (EPHB1) | phosphorylation enrichment (EPHB2) | phosphorylation enrichment (FGFR1) | phosphorylation enrichment (FGFR3) | phosphorylation enrichment (Fer (mouse)) | phosphorylation enrichment (Fes) | phosphorylation enrichment (Fyn) | phosphorylation enrichment (Hck) | phosphorylation enrichment (Jak2) | phosphorylation enrichment (MERTK) | phosphorylation enrichment (c-Abl (mouse)) | phosphorylation enrichment (c-Src)
1 | 0.774 | 0.522 | 0.386 | SRNSKYNAEST [PSEN1_Y315_K311R] | 0.512 | 0.328 | 0.46 | 0.378 | 0.376 | 0.347 | 0.441 | 0.366 | 0.323 | 0.489 | 0.464 | 0.497 | 0.378
2 | 0.73 | 0.728 | 0.946 | SSFSRYIMMPN [LEF1_Y114_G113R_YF] | 0.738 | 0.471 | 0.556 | 0.599 | 0.617 | 0.484 | 0.806 | 0.509 | 0.559 | 0.812 | 0.588 | 0.626 | 0.485
3 | 0.787 | 0.789 | 0.477 | SSPRRYTIAAL [TTR_Y125_G121S] | 0.437 | 0.303 | 0.374 | 0.383 | 0.402 | 0.382 | 0.567 | 0.412 | 0.378 | 0.356 | 0.34 | 0.4 | 0.312
4 | 0.724 | 0.517 | 0.427 | SSSGAYGGGFG [KRT19_Y61_YF] | 0.553 | 0.383 | 0.378 | 0.412 | 0.464 | 0.396 | 0.689 | 0.434 | 0.415 | 0.595 | 0.396 | 0.539 | 0.452
5 | 0.766 | 7.62 | 3.42 | SSSNPYSTVTM [ACTN2_Y599] | 0.62 | 0.461 | 0.389 | 0.543 | 0.486 | 10.9 | 0.751 | 0.976 | 0.995 | 0.599 | 0.521 | 0.768 | 1.9
6 | 0.939 | 0.815 | 0.76 | STDDGCIDLQF [TMEM230_Y29_Y29C] | 1.14 | 0.492 | 0.636 | 0.613 | 0.797 | 0.55 | 1.13 | 0.56 | 0.665 | 0.979 | 0.646 | 0.668 | 0.503
7 | 0.695 | 0.52 | 0.367 | STEEQYRICQV [EFHC1_Y115_R118C] | 1.09 | 0.71 | 0.629 | 0.599 | 0.848 | 0.598 | 1.53 | 0.541 | 0.52 | 1.08 | 0.492 | 0.999 | 0.566
8 | 0.737 | 0.52 | 0.457 | SVTCMYSPALN [TP53_Y126_T125M] | 1.39 | 0.738 | 0.632 | 0.481 | 0.749 | 0.667 | 1.47 | 0.501 | 0.594 | 1.36 | 0.472 | 0.97 | 0.804
9 | 0.721 | 0.747 | 0.388 | SVTCTYFPALN [TP53_Y126_S127F] | 1.68 | 0.83 | 0.669 | 0.632 | 1.01 | 0.637 | 1.82 | 0.487 | 0.554 | 1.64 | 0.608 | 1.13 | 0.452
10 | 0.588 | 0.661 | 0.369 | SVTCTYSPAVN [TP53_Y126_L130V] | 1.58 | 0.77 | 0.746 | 0.697 | 0.945 | 0.646 | 1.71 | 0.58 | 0.654 | 1.49 | 0.508 | 1.18 | 0.662
11 | 0.791 | 0.861 | 0.963 | SVVLPYEPPEV [TP53_Y220_V218L] | 1.47 | 0.686 | 0.797 | 0.538 | 0.704 | 0.746 | 1.12 | 0.456 | 0.518 | 0.98 | 0.47 | 0.945 | 0.592
12 | 0.825 | 0.783 | 0.538 | SVVVPNEPPEV [TP53_Y220_Y220N] | 1.03 | 0.645 | 0.665 | 0.63 | 0.81 | 0.691 | 1.43 | 0.539 | 0.581 | 1.05 | 0.439 | 0.711 | 0.517
13 | 1.01 | 0.786 | 0.613 | SYKNKYGMVAQ [APOB_Y276] | 0.555 | 0.333 | 0.333 | 0.385 | 0.385 | 0.398 | 0.674 | 0.367 | 0.442 | 0.483 | 0.335 | 0.562 | 0.569
14 | 0.825 | 0.699 | 0.441 | SYPHEYGSQEG [RBM10_Y48_R46H] | 0.835 | 0.483 | 0.44 | 0.54 | 0.559 | 0.411 | 0.87 | 0.402 | 0.458 | 0.767 | 0.465 | 0.591 | 0.415
15 | 1.17 | 0.796 | 0.522 | TAIFIYIRPKA [OR10C1_Y258_L255I] | 1.79 | 0.414 | 0.68 | 0.518 | 0.814 | 0.584 | 1.39 | 0.615 | 0.481 | 1.46 | 0.387 | 0.641 | 0.521
16 | 0.708 | 0.69 | 0.493 | TEGNEYVFRVA | 1.08 | 0.593 | 0.627 | 0.647 | 0.822 | 0.44 | 1.28 | 0.583 | 0.486 | 0.949 | 0.421 | 0.647 | 0.528
